From paper doi:10.1101/2022.12.21.520923 (bioRxiv, 2022) come the findings set out here.

To fix the notation:
B1: full-length GST-SNX5 (natural protein)
chain: MAAVPELLQQQEEDRSKLRSVSVDLNVDPSLQIDIPDALSERDKVKFTVHTKTTLPTFQSPEFSVTRQHEDFVWLHDTLIETTDYAGLIIPPAPTKPDFDGPREKMQKLGEGEGSMTKEEFAKMKQELEAEYLAVFKKTVSSHEVFLQRLSSHPVLSKDRNFHVFLEYDQDLSVRRKNTKEMFGGFFKSVVKSADEVLFTGVKEVDDFFEQEKNFLINYYNRIKDSCVKADKMTRSHKNVADDYIHTAACLHSLALEEPTVIKKYLLKVAELFEKLRKVEGRVSSDEDLKLTELLRYYMLNIEAAKDLLYRRTKALIDYENSNKALDKARLKSKDVKLAEAHQQECCQKFEQLSESAKEELINFKRKRVAAFRKNLIEMSELEIKHARNNVSLLQSCIDLFKNN
B3: His-SUMO-tagged CHC22 terminal domain (domain or fragment)
chain: MAQILPVRFQEHFQLQNLGINPANIGFSTLTMESDKFICIREKVGEQAQVTIIDMSDPMAPIRRPISAESAIMNPASKVIALKAGKTLQIFNIEMKSKMKAHTMAEEVIFWKWVSVNTVALVTETAVYHWSMEGDSQPMKMFDRHTSLVGCQVIHYRTDEYQKWLLLVGISAQQNRVVGAMQLYSVDRKVSQPIEGHAAAFAEFKMEGNAKPATLFCFAVRNPTGGKLHIIEVGQPAAGNQPFVKKAVDVFFPPEAQNDFPVAMQIGAKHGVIYLITKYGYLHLYDLESGVCICMNRISADTIFVTAPHKPTSGIIGVNKKGQVLSVCVEEDNIVNYATNVLQNPDLGLRLAVRSNLAGAEKLF

Holding throughout (experiment): pull-down
The target in assay [1] is full-length His-tagged SNX1 (UniProt Q13596 1-522).
The target of the next assay is T1, full-length His-p115 (UniProt O60763 1-962).
T1 sequence: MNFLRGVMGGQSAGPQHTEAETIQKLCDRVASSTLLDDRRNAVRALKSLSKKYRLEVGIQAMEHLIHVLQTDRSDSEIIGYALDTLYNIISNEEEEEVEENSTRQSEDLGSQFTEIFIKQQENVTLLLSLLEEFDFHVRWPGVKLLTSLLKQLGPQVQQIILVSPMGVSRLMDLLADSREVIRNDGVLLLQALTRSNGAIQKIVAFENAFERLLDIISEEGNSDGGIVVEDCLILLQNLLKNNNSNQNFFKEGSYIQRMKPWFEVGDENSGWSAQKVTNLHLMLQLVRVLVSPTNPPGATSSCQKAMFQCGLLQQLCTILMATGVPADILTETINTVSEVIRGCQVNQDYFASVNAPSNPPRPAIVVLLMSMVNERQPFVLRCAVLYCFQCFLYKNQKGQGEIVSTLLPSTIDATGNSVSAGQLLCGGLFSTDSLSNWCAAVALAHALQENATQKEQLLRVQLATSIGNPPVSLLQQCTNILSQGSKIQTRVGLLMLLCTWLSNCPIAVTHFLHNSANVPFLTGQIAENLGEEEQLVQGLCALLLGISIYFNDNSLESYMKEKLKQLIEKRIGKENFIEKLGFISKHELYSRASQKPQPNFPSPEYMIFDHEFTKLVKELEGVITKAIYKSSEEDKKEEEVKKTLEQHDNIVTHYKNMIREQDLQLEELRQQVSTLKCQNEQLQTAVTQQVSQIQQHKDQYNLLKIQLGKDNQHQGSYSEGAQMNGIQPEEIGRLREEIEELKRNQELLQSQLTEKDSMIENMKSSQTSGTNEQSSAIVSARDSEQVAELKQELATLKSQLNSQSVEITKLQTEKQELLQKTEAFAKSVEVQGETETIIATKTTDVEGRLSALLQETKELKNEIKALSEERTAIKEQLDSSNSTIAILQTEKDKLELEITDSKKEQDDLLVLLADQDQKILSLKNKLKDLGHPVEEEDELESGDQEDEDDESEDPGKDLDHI

For another assay, the target named is T2, His-tagged CHC22 Hub (human, UniProt P53675 1074-1640).
T2 sequence: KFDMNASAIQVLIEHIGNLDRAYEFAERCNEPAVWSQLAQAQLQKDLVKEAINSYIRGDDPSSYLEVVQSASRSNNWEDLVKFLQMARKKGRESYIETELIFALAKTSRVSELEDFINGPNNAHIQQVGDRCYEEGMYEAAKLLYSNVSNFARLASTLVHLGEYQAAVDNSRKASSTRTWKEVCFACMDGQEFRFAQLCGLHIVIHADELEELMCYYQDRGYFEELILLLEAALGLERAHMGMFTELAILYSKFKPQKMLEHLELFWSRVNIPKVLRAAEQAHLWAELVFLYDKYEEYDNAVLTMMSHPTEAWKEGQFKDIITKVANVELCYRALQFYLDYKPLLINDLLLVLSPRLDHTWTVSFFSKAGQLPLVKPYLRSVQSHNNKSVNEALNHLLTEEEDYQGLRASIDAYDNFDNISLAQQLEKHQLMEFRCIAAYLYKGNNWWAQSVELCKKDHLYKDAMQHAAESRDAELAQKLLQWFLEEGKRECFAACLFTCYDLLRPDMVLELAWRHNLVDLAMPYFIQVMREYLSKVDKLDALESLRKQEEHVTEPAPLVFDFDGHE

In the assay “full-length GST-SNX5” the target is B1.
Assay [2] deals with T3, full-length GST-SNX5 phosphomimetic S226E mutant (human, UniProt Q9Y5X3 1-404, S226E).
T3 sequence: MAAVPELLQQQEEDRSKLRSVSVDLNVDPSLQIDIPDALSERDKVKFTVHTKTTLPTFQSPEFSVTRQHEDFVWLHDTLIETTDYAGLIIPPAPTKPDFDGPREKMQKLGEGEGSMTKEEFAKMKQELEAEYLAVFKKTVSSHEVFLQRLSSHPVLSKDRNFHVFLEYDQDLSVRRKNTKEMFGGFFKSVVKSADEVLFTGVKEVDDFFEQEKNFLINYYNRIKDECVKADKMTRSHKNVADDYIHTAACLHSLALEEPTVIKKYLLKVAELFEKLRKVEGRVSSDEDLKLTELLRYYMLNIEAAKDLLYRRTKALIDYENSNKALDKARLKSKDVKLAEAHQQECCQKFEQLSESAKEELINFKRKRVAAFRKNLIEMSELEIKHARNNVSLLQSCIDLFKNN

For a further assay, the target named is T4, full-length GST-p115 (UniProt O60763 1-962).
T4 sequence: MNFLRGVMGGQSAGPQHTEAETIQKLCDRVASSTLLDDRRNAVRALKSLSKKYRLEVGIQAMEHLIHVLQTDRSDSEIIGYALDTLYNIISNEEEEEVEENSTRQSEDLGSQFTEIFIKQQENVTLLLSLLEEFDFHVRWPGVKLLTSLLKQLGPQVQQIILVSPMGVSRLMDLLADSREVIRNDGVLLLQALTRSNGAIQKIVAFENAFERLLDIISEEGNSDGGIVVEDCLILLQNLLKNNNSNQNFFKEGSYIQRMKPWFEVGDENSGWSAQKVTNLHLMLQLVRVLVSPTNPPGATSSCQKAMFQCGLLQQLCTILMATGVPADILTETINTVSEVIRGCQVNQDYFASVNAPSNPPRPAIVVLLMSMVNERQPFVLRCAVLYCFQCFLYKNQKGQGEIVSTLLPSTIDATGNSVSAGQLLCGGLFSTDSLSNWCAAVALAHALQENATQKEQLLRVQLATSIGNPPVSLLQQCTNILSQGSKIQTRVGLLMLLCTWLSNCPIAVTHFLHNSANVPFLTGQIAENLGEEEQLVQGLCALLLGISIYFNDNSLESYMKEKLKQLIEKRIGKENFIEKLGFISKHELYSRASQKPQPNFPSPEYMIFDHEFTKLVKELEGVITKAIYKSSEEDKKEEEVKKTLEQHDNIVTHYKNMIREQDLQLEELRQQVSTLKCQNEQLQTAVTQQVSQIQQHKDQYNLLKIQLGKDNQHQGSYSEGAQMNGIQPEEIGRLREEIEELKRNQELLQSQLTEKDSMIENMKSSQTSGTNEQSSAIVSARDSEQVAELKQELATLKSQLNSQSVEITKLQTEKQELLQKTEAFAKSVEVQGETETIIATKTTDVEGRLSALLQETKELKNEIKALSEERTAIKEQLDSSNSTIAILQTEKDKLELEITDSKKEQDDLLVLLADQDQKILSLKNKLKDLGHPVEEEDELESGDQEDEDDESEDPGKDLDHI

The target of assay [3] is B3.
For assay [4], the target named is T5, His-SUMO CHC17 terminal domain (human, UniProt Q00610 1-364).
T5 sequence: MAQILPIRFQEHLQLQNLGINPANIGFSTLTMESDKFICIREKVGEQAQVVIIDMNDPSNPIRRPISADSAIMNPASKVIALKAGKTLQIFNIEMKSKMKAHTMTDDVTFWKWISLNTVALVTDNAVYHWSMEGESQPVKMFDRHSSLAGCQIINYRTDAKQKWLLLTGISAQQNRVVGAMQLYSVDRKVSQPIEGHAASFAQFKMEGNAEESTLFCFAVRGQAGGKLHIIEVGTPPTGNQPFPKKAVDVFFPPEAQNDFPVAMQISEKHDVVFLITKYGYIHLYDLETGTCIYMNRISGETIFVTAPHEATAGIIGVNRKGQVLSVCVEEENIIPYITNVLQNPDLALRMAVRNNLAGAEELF

Chain of full-length His-tagged SNX1 (Q13596 whole entry): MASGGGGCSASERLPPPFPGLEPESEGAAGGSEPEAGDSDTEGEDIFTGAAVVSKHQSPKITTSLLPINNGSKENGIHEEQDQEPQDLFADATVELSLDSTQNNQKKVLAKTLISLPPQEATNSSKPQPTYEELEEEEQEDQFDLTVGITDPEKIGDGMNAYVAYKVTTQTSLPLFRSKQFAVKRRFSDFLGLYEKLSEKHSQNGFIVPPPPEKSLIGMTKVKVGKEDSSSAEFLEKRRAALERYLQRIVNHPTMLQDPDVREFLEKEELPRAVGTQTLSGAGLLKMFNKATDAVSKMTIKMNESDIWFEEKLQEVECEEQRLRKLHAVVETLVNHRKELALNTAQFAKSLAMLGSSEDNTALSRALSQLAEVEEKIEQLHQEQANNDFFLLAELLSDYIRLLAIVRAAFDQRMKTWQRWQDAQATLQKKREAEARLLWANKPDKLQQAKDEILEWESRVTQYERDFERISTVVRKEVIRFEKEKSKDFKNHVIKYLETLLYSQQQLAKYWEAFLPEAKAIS

In the case of B1, the binding result (in assay [1]; with full-length His-p115; with His-tagged CHC22 Hub) was “binds” in each case.

B2: His-tagged CHC22 TxD (domain or fragment)
chain: WAQSVELCKKDHLYKDAMQHAAESRDAELAQKLLQWFLEEGKRECFAACLFTCYDLLRPDMVLELAWRHNLVDLAMPYFIQVMREYLSKVDKLDALESLRKQEEHVTEPAPLVFDFDGHE
Consider B2, for which the binding result (with full-length GST-SNX5; in assay [2]) was “binds” in each case.
Consider B3, for which, in the assay with full-length GST-p115, the binding result is recorded as “binds”.

B4: GST-GGA2-HE (domain or fragment)
chain: GRVTFGNRVTSSLGDIPVSRVFQNPAGCMKTCPLIDLEVDNGPAQMGTVVPSLLHQDLAALGISDAPVTGMVSGQNCCEEKRNPSSSTLPGGGVQNPSADRNLLDLLSAQPAPCPLNYVSQKSVPKEVPPGTKSSPGWSWEAGPLAPSPSSQNTPLAQVFVPLESVKPSSLPPLIVYDRNGFRILLHFSQTGAPGHPEVQVLLLTMMSTAPQPVWDIMFQVAVPKSMRVKLQPASSSKLPAFSPLMPPAVISQMLLLDNPHKEPIRLRYKLTFNQGGQPFSEVGEVKDFPDLAVLGAA
As for B4, the binding result in assay [3] and in assay [4] was “binds” each time.
